The assay has as its target LC3B (1-120, G120C) (human, UniProt Q9GZQ8 1-120, G120C). Nature of the assay: pull-down.

B1: GST-ALG2^ΔN23 (domain or fragment)
chain: DQSFLWNVFQRVDKDRSGVISDTELQQALSNGTWTPFNPVTVRSIISMFDRENKAGVNFSEFTGVWKYITDWQNVFRTYDRDNSGMIDKNELKQALSGFGYRLSDQFHDILIRKFDRQGRGQIAFDDFIQGCIVLQRLTDIFRRYDTDQDGWIQVSYEQYLSMVFSIV
As for B1, the binding result was “binds”.

(Values after doi:10.1101/2024.04.30.591897 (bioRxiv, 2024).)
